Results from patent publication US20140274782A1, “AFFINITY REAGENTS AND METHODS FOR DETECTION, PURIFICATION, AND PROTEOMIC ANALYSIS OF METHYLATED PROTEINS” (The Board of Trustees of the Leland Stanford Junior …, priority 2013, published 2014).

T1: G9a and GLP (Homo sapiens, UniProt Q96KQ7+Q9H9B1)
T1 sequence (Q96KQ7 2-1210 limits assumed): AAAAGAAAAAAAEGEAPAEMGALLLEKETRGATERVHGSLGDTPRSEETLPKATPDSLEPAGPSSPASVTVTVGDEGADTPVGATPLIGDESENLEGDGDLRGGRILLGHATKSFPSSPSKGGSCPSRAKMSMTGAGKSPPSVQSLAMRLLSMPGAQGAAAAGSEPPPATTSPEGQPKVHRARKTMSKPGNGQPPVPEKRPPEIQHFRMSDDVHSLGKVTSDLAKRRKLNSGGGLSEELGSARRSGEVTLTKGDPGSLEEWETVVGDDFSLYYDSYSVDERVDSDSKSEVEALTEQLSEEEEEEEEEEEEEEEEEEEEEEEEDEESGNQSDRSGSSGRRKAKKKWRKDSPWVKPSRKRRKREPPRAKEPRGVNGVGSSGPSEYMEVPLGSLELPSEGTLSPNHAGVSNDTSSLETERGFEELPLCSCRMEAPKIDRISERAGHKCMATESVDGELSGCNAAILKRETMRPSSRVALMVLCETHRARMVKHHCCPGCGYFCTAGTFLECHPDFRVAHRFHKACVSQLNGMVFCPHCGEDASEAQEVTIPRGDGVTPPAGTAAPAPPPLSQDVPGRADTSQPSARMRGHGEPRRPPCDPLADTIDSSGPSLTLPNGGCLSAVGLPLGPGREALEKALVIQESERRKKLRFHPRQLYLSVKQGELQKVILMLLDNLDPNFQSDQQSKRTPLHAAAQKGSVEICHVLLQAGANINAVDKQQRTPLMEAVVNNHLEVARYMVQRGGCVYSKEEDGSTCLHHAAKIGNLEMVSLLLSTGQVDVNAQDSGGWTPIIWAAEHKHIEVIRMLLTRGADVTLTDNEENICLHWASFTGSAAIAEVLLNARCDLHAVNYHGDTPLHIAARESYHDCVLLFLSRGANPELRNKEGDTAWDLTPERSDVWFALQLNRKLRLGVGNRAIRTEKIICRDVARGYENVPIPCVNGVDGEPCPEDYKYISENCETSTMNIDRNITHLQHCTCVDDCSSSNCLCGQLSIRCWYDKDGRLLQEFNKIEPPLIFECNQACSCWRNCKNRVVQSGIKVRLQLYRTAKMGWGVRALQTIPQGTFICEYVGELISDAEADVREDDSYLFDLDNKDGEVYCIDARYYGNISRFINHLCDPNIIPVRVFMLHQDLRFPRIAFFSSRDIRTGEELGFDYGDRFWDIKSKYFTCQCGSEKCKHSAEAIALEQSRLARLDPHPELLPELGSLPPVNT
T1 sequence (Q9H9B1 2-1298 limits assumed): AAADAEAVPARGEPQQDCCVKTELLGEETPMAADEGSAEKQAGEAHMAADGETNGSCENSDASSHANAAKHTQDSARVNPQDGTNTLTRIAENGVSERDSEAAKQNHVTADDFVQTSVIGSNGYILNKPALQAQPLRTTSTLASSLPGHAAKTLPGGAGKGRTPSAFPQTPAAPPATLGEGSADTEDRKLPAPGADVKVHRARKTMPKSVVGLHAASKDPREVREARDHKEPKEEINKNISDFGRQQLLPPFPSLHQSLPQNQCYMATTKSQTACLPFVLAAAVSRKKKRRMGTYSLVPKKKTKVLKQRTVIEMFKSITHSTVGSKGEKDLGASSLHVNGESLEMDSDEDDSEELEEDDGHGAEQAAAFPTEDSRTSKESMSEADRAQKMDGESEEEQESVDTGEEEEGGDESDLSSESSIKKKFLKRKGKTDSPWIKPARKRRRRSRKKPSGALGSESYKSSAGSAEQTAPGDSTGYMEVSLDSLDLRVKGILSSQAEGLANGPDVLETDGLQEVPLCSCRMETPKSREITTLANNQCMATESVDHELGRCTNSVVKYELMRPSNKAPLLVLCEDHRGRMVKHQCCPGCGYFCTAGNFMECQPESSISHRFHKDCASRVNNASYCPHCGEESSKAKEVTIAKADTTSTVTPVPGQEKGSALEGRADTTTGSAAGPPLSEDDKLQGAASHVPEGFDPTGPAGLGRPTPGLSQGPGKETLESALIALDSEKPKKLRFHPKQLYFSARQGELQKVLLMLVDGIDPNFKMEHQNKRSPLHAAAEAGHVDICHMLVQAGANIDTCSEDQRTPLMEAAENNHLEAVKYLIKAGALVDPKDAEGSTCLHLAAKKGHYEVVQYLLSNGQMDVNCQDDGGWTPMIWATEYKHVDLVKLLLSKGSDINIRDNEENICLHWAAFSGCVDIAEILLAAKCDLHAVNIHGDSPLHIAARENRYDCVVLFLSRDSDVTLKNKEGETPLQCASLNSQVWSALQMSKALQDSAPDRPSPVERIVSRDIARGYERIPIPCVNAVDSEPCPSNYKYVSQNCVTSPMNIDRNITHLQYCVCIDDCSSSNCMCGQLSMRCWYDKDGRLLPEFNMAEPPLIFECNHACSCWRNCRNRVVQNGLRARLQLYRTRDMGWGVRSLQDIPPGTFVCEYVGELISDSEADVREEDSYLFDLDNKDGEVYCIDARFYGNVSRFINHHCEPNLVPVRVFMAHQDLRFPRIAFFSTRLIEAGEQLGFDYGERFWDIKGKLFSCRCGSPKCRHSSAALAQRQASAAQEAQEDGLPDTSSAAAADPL


What was measured:
[1] = tested on: 3×MBT domain of L3MBTL1; assay: Triple SILAC pull-down, 3xMBT/3xMBTD355N ratio (cytoplasmic, nuclear and chromatin fractions of 293T cells); assay type: binding, human; details: SILAC ratio; for Protein Ratios 3xMBT/D355N: pull-down by 3xMBT vs 3xMBTD355N, 293T cells;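 on all read-outs here: proteins quantified with MaxQuant, requiring at least two unique peptides and quantification in both label directions, normalized to the mean of proteins from a digested loading control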
[2] = target: T1, G9a and GLP; assay: Triple SILAC pull-down after UNC0638 treatment of 293T cells, DMSO/UNC0638 ratio of protein captured by 3×MBT; assay type: cell-based; set-up: cells were treated for 24 hours with UNC0638 at 2.5 μM or DMSO vehicle control; endogenous in cells; host or cells: HEK 293T; details: for Protein Ratios DMSO/UNC0638: SILAC ratio of protein captured by 3xMBT, 293T cells treated 24 hours with UNC0638 at 2.5 μM or DMSO;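 on all read-outs here: mass spectrometry (Q-Exactive) SILAC quantitation, DMSO/UNC0638 ratio computed after subtracting 3×MBTD355N mutant pull-down background, only proteins with at least twofold 3×MBT over mutant signal considered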

Protein Ratios DMSO/UNC0638 [2] | Relative to UNC0638 UNC Heavy ([2]; SILAC ratio DMSO/UNC0638 of protein pulled down with 3xMBT, UNC0638 in heavy SILAC media) [log base 2] | Relative to UNC0638 UNC Light ([2]; SILAC ratio DMSO/UNC0638 of protein pulled down with 3xMBT, UNC0638 in light SILAC media) [log base 2] | Relative to UNC0638 Average ([2]; average of UNC Light and UNC Heavy experiments) [log base 2] | Candidate G9a/GLP target ([2]; reduced association with 3xMBT after UNC0638 treatment) | Molecule | Protein Ratios 3xMBT/D355N [1] | 3xMBT/D355N UNC Heavy ([1]; pull-down 3xMBT vs 3xMBTD355N, experiment with UNC0638 in heavy SILAC media) [log base 2] | 3xMBT/D355N UNC Light ([1]; pull-down 3xMBT vs 3xMBTD355N, experiment with UNC0638 in light SILAC media) [log base 2]
3.1 | – | – | – | – | Cleavage and polyadenylation specificity factor subunit 2 (protein, UniProt Q9P2I0 1-782, looked up) Cleavage and polyadenylation …: MTSIIKLTTLSGVQEESALCYLLQVDEFRFLLDCGWDEHFSMDIIDSLRKHVHQIDAVLLSHPDPLHLGALPYAVGKLGLNCAIYATIPVYKMGQMFMYDLYQSRHNTEDFTLFTLDDVDAAFDKIQQLKFSQIVNLKGKGHGLSITPLPAGHMIGGTIWKIVKDGEEEIVYAVDFNHKREIHLNGCSLEMLSRPSLLITDSFNATYVQPRRKQRDEQLLTNVLETLRGDGNVLIAVDTAGRVLELAQLLDQIWRTKDAGLGVYSLALLNNVSYNVVEFSKSQVEWMSDKLMRCFEDKRNNPFQFRHLSLCHGLSDLARVPSPKVVLASQPDLECGFSRDLFIQWCQDPKNSIILTYRTTPGTLARFLIDNPSEKITEIELRKRVKLEGKELEEYLEKEKLKKEAAKKLEQSKEADIDSSDESDIEEDIDQPSAHKTKHDLMMKGEGSRKGSFFKQAKKSYPMFPAPEERIKWDEYGEIIKPEDFLVPELQATEEEKSKLESGLTNGDEPMDQDLSDVPTKCISTTESIEIKARVTYIDYEGRSDGDSIKKIINQMKPRQLIIVHGPPEASQDLAECCRAFGGKDIKVYMPKLHETVDATSETHIYQVRLKDSLVSSLQFCKAKDAELAWIDGVLDMRVSKVDTGVILEEGELKDDGEDSEMQVEAPSDSSVIAQQKAMKSLFGDDEKETGEESEIIPTLEPLPPHEVPGHQSVFMNEPRLSDFKQVLLREGIQAEFVGGVLVCNNQVAVRRTETGRIGLEGCLCQDFYRIRDLLYEQYAIV | 8.1 | – | –
2.3 | – | – | – | – | Peroxiredoxin-2 (protein, UniProt P32119 2-198, looked up) Peroxiredoxin-2: ASGNARIGKPAPDFKATAVVDGAFKEVKLSDYKGKYVVLFFYPLDFTFVCPTEIIAFSNRAEDFRKLGCEVLGVSVDSQFTHLAWINTPRKEGGLGPLNIPLLADVTRRLSEDYGVLKTDEGIAYRGLFIIDGKGVLRQITVNDLPVGRSVDEALRLVQAFQYTDEHGEVCPAGWKPGSDTIKPNVDDSKEYFSKHN | 8.6 | – | –
1.4 | 0.36 | 0.56 | 0.46 | ✓ | Metastasis-associated protein 1 (protein) MAANMYRVGDYVYFENSSSNPYLIRRIEELNKTANGNVEAKVVCFYRRRDISSTLIALADKHATLSVCYKAGPGADNGEEGEIEEEMENPEMVDLPEKLKHQLRHRELFLSRQLESLPATHIRGKCSVTLLNETESLKSYLEREDFFFYSLVYDPQQKTLLADKGEIRVGNRYQADITDLLKEGEEDGRDQSRLETQVWEAHNPLTDKQIDQFLVVARSVGTFARALDCSSSVRQPSLHMSAAAASRDITLFHAMDTLHKNIYDISKAISALVPQGGPVLCRDEMEEWSASEANLFEEALEKYGKDFTDIQQDFLPWKSLTSIIEYYYMWKTTDRYVQQKRLKAAEAESKLKQVYIPNYNKPNPNQISVNNVKAGVVNGTGAPGQSPGAGRACESCYTTQSYQWYSWGPPNMQCRLCASCWTYWKKYGGLKMPTRLDGERPGPNRSNMSPHGLPARSSGSPKFAMKTRQAFYLHTTKLTRIARRLCREILRPWHAARHPYLPINSAAIKAECTARLPEASQSPLVLKQAVRKPLEAVLRYLETHPRPPKPDPVKSVSSVLSSLTPAKVAPVINNGSPTILGKRSYEQHNGVDGNMKKRLLMPSRGLANHGQARHMGPSRNLLLNGKSYPTKVRLIRGGSLPPVKRRRMNWIDAPDDVFYMATEETRKIRKLLSSSETKRAARRPYKPIALRQSQALPPRPPPPAPVNDEPIVIED | 6.0 | 0.90 | 4.28
1.4 | – | – | – | – | Cytoplasmic FMR1-interacting protein 1 (protein, UniProt Q7L576 1-1253, looked up) Cytoplasmic FMR1-interacting …: MAAQVTLEDALSNVDLLEELPLPDQQPCIEPPPSSLLYQPNFNTNFEDRNAFVTGIARYIEQATVHSSMNEMLEEGQEYAVMLYTWRSCSRAIPQVKCNEQPNRVEIYEKTVEVLEPEVTKLMNFMYFQRNAIERFCGEVRRLCHAERRKDFVSEAYLITLGKFINMFAVLDELKNMKCSVKNDHSAYKRAAQFLRKMADPQSIQESQNLSMFLANHNKITQSLQQQLEVISGYEELLADIVNLCVDYYENRMYLTPSEKHMLLKVMGFGLYLMDGSVSNIYKLDAKKRINLSKIDKYFKQLQVVPLFGDMQIELARYIKTSAHYEENKSRWTCTSSGSSPQYNICEQMIQIREDHMRFISELARYSNSEVVTGSGRQEAQKTDAEYRKLFDLALQGLQLLSQWSAHVMEVYSWKLVHPTDKYSNKDCPDSAEEYERATRYNYTSEEKFALVEVIAMIKGLQVLMGRMESVFNHAIRHTVYAALQDFSQVTLREPLRQAIKKKKNVIQSVLQAIRKTVCDWETGHEPFNDPALRGEKDPKSGFDIKVPRRAVGPSSTQLYMVRTMLESLIADKSGSKKTLRSSLEGPTILDIEKFHRESFFYTHLINFSETLQQCCDLSQLWFREFFLELTMGRRIQFPIEMSMPWILTDHILETKEASMMEYVLYSLDLYNDSAHYALTRFNKQFLYDEIEAEVNLCFDQFVYKLADQIFAYYKVMAGSLLLDKRLRSECKNQGATIHLPPSNRYETLLKQRHVQLLGRSIDLNRLITQRVSAAMYKSLELAIGRFESEDLTSIVELDGLLEINRMTHKLLSRYLTLDGFDAMFREANHNVSAPYGRITLHVFWELNYDFLPNYCYNGSTNRFVRTVLPFSQEFQRDKQPNAQPQYLHGSKALNLAYSSIYGSYRNFVGPPHFQVICRLLGYQGIAVVMEELLKVVKSLLQGTILQYVKTLMEVMPKICRLPRHEYGSPGILEFFHHQLKDIVEYAELKTVCFQNLREVGNAILFCLLIEQSLSLEEVCDLLHAAPFQNILPRVHVKEGERLDAKMKRLESKYAPLHLVPLIERLGTPQQIAIAREGDLLTKERLCCGLSMFEVILTRIRSFLDDPIWRGPLPSNGVMHVDECVEFHRLWSAMQFVYCIPVGTHEFTVEQCFGDGLHWAGCMIIVLLGQQRRFAVLDFCYHLLKVQKHDGKDEIIKNVPLKKMVERIRKFQILNDEIITILDKYLKSGDGEGTPVEHVRCFQPPIHQSLASS | 3.4 | – | –
